Results on eight molecules are retold here after article doi:10.1101/201277 (bioRxiv, 2017).

Where two headings read alike, the source gives them in different places.

B5: catabolite repressor activator protein (Cra), wild-type (natural protein, E. coli, UniProt P0ACP1 1-334, looked up)
chain: MKLDEIARLAGVSRTTASYVINGKAKQYRVSDKTVEKVMAVVREHNYHPNAVAAGLRAGRTRSIGLVIPDLENTSYTRIANYLERQARQRGYQLLIACSEDQPDNEMRCIEHLLQRQVDAIIVSTSLPPEHPFYQRWANDPFPIVALDRALDREHFTSVVGADQDDAEMLAEELRKFPAETVLYLGALPELSVSFLREQGFRTAWKDDPREVHFLYANSYEREAAAQLFEKWLETHPMPQALFTTSFALLQGVMDVTLRRDGKLPSDLAIATFGDNELLDFLQCPVLAVAQRHRDVAERVLEIVLASLDEPRKPKPGLTRIKRNLYRRGVLSRS

For data set [1], the target named is T1, Cra (FruR) (Escherichia coli strain 3.300 …, UniProt P0ACP1 1-334). The experiment in a line: filter binding.
For data set [2], the target named is T2, Cra (FruR);FruK (fructose-1-kinase, 1-phosphofructokinase) (Escherichia coli strain 3.300 …, UniProt P0ACP1;P0AEW9 1-334;1-312, |). The experiment in a line: BLI.
Data set [3] deals with T1, Cra (FruR). The experiment in a line: BLI.
For data set [4], the target named is B5. The experiment in a line: pull-down.
Data set [5] addresses T2, Cra (FruR);FruK (fructose-1-kinase, …). The experiment in a line: BLI. This is another data set of the same source. (Biolayer interferometry detects binding as a change in optical thickness at a sensor tip.)
Data set [6] deals with the molecule itself. Put plainly: elution from a phosphocellulose column.
Data set [7] addresses T2, Cra (FruR);FruK (fructose-1-kinase, …). Put plainly: BLI. The source holds these as a separate data set.

B1: aceB operator (filter binding) (dsDNA)
DNA 1: TGTTGTGTGGGCTGAATCGCTTAACGTCACACAGG
DNA 2: CCTGTGTGACGTTAAGCGATTCAGCCCACACAACA
Broadly, the Kd is the equilibrium constant for the complex coming apart. Read a high Kd as lower affinity. In the data set with Cra (FruR) [1], B1 came in with a dissociation constant (Kd) of 1.7 nM.

B2: fruB proximal operator (BLI) (dsDNA)
DNA 1: ATGCATGTTGTGTGGTTCTTGAAACGTTTCAGCTCACACAGGTCC
DNA 2: GGACCTGTGTGAGCTGAAACGTTTCAAGAACCACACAACATGCAT
As for B2, the binding result (in data set [2]; in the data set with Cra (FruR) [3]) was “binds” throughout.

B3: fructose-1-kinase (FruK), recombinant, separately purified (enzyme, E. coli, UniProt P0AEW9 1-312, looked up)
chain: MSRRVATITLNPAYDLVGFCPEIERGEVNLVKTTGLHAAGKGINVAKVLKDLGIDVTVGGFLGKDNQDGFQQLFSELGIANRFQVVQGRTRINVKLTEKDGEVTDFNFSGFEVTPADWERFVTDSLSWLGQFDMVCVSGSLPSGVSPEAFTDWMTRLRSQCPCIIFDSSREALVAGLKAAPWLVKPNRRELEIWAGRKLPEMKDVIEAAHALREQGIAHVVISLGAEGALWVNASGEWIAKPPSVDVVSTVGAGDSMVGGLIYGLLMRESSEHTLRLATAVAALAVSQSNVGITDRPQLAAMMARVDLQPFN
As for B3, in data set [4], the Kd was less than 100 nM.

B4: pfkA operator (BLI) (dsDNA)
DNA 1: ATGCATGTTGTGTGGCCTGAATCAATTCAGCTCACACAGGTGTCC
DNA 2: GGACACCTGTGTGAGCTGAATTGATTCAGGCCACACAACATGCAT
In the case of B4, the binding result (in data set [5]; with Cra (FruR) [3]) was “binds” each time. One may read the stoichiometry N as a count of units in the complex or per binding partner. For B5, the “stoichiometry N” value in data set [6] amounted to 2.

B6: fruB proximal operator (filter binding) (dsDNA)
DNA 1: TGTTGTGTGGTTCTTGAAACGTTTCAGCTCACACAGG
DNA 2: CCTGTGTGAGCTGAAACGTTTCAAGAACCACACAACA
On to B6, for which the Kd with Cra (FruR) [1] came out at 0.018 nM. This counts as picomolar.

B7: aceB operator (BLI) (dsDNA)
DNA 1: ATGCATGTTGTGTGGGCTGAATCGCTTAACGTCACACAGGTGTCC
DNA 2: GGACACCTGTGTGACGTTAAGCGATTCAGCCCACACAACATGCAT
B7: the binding result (with Cra (FruR) [3]; in data set [7]) was “binds” throughout.

B8: fruB distal operator (filter binding) (dsDNA)
DNA 1: TGTTGTGTGGGAGGCTGAATCGTTTCAATCACACAGG
DNA 2: CCTGTGTGATTGAAACGATTCAGCCTCCCACACAACA
B8 yielded a Kd with Cra (FruR) [1] of 0.018 nM. This lies in the picomolar range.
